Source: patent US20250145729A1 (DENALI THERAPEUTICS, published 2025)

T1: human CD98hc (human, UniProt P08195 109-529)
T1 construct: also called huCD98hc; CD98 heavy chain
T1 sequence: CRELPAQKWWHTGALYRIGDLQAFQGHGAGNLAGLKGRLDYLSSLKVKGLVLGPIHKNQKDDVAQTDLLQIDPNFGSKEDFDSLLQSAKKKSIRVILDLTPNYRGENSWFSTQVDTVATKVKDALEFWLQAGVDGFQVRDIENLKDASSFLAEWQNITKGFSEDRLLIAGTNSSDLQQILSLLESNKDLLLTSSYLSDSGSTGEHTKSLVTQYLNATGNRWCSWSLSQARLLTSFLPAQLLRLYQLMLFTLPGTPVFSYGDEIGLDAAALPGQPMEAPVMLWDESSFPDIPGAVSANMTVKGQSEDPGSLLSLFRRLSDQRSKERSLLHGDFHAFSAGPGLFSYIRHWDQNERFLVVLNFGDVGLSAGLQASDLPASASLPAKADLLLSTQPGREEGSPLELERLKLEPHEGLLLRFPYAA


What was measured:
[1] = target: T2, cyno CD98hc (cynomolgus monkey); assay: SPR (Biacore)
T2 construct: also called cynomolgus CD98hc; cyCD98hc
Outline: (§1)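 Engineered Fc polypeptides, made as Fc-Fab fusions with anti-BACE1 Fabs, were assessed for Kd toward CD98hc. Measurements were taken by surface plasmon resonance with a Biacore instrument, in a bivalent format or in a monovalent knob/hole format whose CD98hc-binding site sat on the knob chain alone.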

[2] = target: T1, human CD98hc; assay: SPR (Biacore)
Outline: as §1

Kd [1] [µM]	Kd [2] [µM]	Binder
2.36	0.35	LLB2.10.8.14.4.N (Fc fusion, Fc part only; changes read against LLB2-10-8) APELLGGPSVFLFPPKPKDTLMISRTPEVTCVVVDVSHEDPEVKFNWYVDGVEVHNAKTKPREEQYNSTYRVVSVLTVLHQDWLNGKEYKCKVSNKALPAPIEKTISKAKGQPREPQVYTLPPSRDELTKNQVSLTCLVKGFYPSDIAVLWNSRFVLENNYKTTPPVLDSDGSFFLYSKLTVDKSRWQQGNIFACNVYHEALHNHRTFKNLALSPGK
2.7	0.7	LLS2.C.4 (Fc fusion, Fc part only; also called LLB2.C.4) APELLGGPSVFLFPPKPKDTLMISRTPEVTCVVVDVSHEDPEVKFNWYVDGVEVHNAKTKPREEQYNSTYRVVSVLTVLHQDWLNGKEYKCKVSNKALPAPIEKTISKAKGQPREPQVYTLPPSRDELTKNQVSLTCLVKGFYPSDIAVAWNSRFELENNYKTTPPVLDSDGSFFLYSKLTVDKSRWQQGNIFACNVWHEALHNHYTFKNLSLSPGK
3.5	1	LLB2.C.3 (Fc fusion, Fc part only) APELLGGPSVFLFPPKPKDTLMISRTPEVTCVVVDVSHEDPEVKFNWYVDGVEVHNAKTKPREEQYNSTYRVVSVLTVLHQDWLNGKEYKCKVSNKALPAPIEKTISKAKGQPREPQVYTLPPSRDELTKNQVSLTCLVKGFYPSDIAVVWNSQYELENNYKTTPPVLDSDGSFFLYSKLTVDKSRWQQGNVFACNVWHEALHNHYTFKNLSLSPGK
2.2	0.62	LLS2.C.15 (Fc fusion, Fc part only; also called LLB2.C.15) APELLGGPSVFLFPPKPKDTLMISRTPEVTCVVVDVSHEDPEVKFNWYVDGVEVHNAKTKPREEQYNSTYRVVSVLTVLHQDWLNGKEYKCKVSNKALPAPIEKTISKAKGQPREPQVYTLPPSRDELTKNQVSLTCLVKGFYPSDIAVKWNSRFQLENNYKTTPPVLDSDGSFFLYSKLTVDKSRWQQGNLFACNVWHEALHNHYTFKNLSLSPGK
4.5	2	LLS2.33.2 (Fc fusion, Fc part only; also called LLB2.33.2) APELLGGPSVFLFPPKPKDTLMISRTPEVTCVVVDVSHEDPEVKFNWYVDGVEVHNAKTKPREEQYNSTYRVVSVLTVLHQDWLNGKEYKCKVSNKALPAPIEKTISKAKGQPREPQVYTLPPSRDELTKNQVSLTCLVKGFYPSDIAVAWNSKFELENNYKTTPPVLDSDGSFFLYSKLTVDKSRWQQGNLFACNVWHEALHNHYTFKNLSLSPGK
6.9	1.7	LLS2.33.5 (Fc fusion, Fc part only; also called LLB2.33.5) APELLGGPSVFLFPPKPKDTLMISRTPEVTCVVVDVSHEDPEVKFNWYVDGVEVHNAKTKPREEQYNSTYRVVSVLTVLHQDWLNGKEYKCKVSNKALPAPIEKTISKAKGQPREPQVYTLPPSRDELTKNQVSLTCLVKGFYPSDIAVQWSSQYELENNYKTTPPVLDSDGSFFLYSKLTVDKSRWQQGNVFACNVWHEALHNHYTFKNLSLSPGK
5.9	1.2	LLS2.43.5 (Fc fusion, Fc part only; also called LLB2.43.5) APELLGGPSVFLFPPKPKDTLMISRTPEVTCVVVDVSHEDPEVKFNWYVDGVEVHNAKTKPREEQYNSTYRVVSVLTVLHQDWLNGKEYKCKVSNKALPAPIEKTISKAKGQPREPQVYTLPPSRDELTKNQVSLTCLVKGFYPSDIAVMWNSQYELENNYKTTPPVLDSDGSFFLYSKLTVDKSRWQQGNVFACNVHHEALHNHYTFKNLSLSPGK
8.2	2.2	LLS2.33.8 (Fc fusion, Fc part only; also called LLB2.33.8) APELLGGPSVFLFPPKPKDTLMISRTPEVTCVVVDVSHEDPEVKFNWYVDGVEVHNAKTKPREEQYNSTYRVVSVLTVLHQDWLNGKEYKCKVSNKALPAPIEKTISKAKGQPREPQVYTLPPSRDELTKNQVSLTCLVKGFYPSDIAVAWNSKFRLENNYKTTPPVLDSDGSFFLYSKLTVDKSRWQQGNLFACNVWHEALHNHYTFKNLSLSPGK
